# The supplement of paper PMC7877785
# ± gives the uncertainty stated by the source.
# Assay: self-splicing fitness, log relative to wild type (ln ratio); higher = more splicing; Tetrahymena group I intron in knt gene, E. coli kanamycin selection, DiMSum; sequences stand for … in CUCUCU…GGAGGGAAAAGUUAUCAGGCAUGCACCUGGUAGCUAGUCUUUAAACCAAUAGAUUGCAUCGGUUUAAAAGGCAAGACCGUCAAAUUGCGGGAAAGGGGUCAACAGCCGUUCAGUACCAAGUCUCAGGGGAAACUUUGAGAUGGCCUUGCAAAGGGUAUGGUAAUAAGCUGACGGACAUGGUCCUAACCACGCAGCCAAGUCCUAAGUCAACAGAUCUUCUGUUGAUAUGGAUGCAGUUCACAGACUAAAUGUCGGUCGGGGAAGAUGUAUUCUUCUCAUAAGAUAUAGUCGGACCUCUCCUUAAUGGGAGCUAGCGGAUGAAGUGAUGCAACACUGGAGCCGCUGGGAACUAAUUUGUAUGCGAAAGUAUAUUGAUUAGUUUUGGAGUACUCGUGGUCG
# Method in brief: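 Six replicate transformations of E. coli BL21(DE3) with a pET-22b(+) library were grown overnight at 37°C or 30°C. The library randomised all eight P1ex-region intron nucleotides, the intron lying in the knt kanamycin-resistance gene, and plates were LB agar with or without 25 μg/mL kanamycin plus 100 μg/mL carbenicillin, 50 μM IPTG and 0.2% rhamnose. Pooled colonies were amplicon-sequenced on an Illumina HiSeq 2500, and fitness is the DiMSum error-weighted combination of wild-type-normalised replicate fold changes, kanamycin versus none.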
Sequence,self-splicing fitness (ln) (30 °C),self-splicing fitness (ln) (37 °C)
AUCCAGCAAUAUUACGGAUA,-3.19 ± 0.18,-0.948 ± 0.12
AUCCAGCAAUAUUACGGUCA,-0.209 ± 0.065,0.168 ± 0.072
AUCCAGCAAUAUUACGGUCG,-0.645 ± 0.058,0.12 ± 0.089
AUCCAGCAAUAUUACGUUGC,-3.87 ± 0.14,-2.86 ± 0.15
AUCGAGCAAUAUUACGAACC,-0.925 ± 0.36,-0.838 ± 0.4
AUCGAGCAAUAUUACGAGAG,-3.84 ± 0.39,-1.14 ± 0.19
AUCGAGCAAUAUUACGAUUU,-1.42 ± 0.11,-0.535 ± 0.13
AUCGAGCAAUAUUACGCACC,-1.65 ± 0.18,
AUCGAGCAAUAUUACGCCUC,-2.06 ± 0.39,-1.98 ± 0.45
AUCGAGCAAUAUUACGGAGA,-2.8 ± 0.22,-2.7 ± 0.29
AUCGAGCAAUAUUACGGAGU,-3.83 ± 0.31,-2.42 ± 0.23
AUCGAGCAAUAUUACGGGUU,-3.65 ± 0.23,-2.32 ± 0.2
AUCGAGCAAUAUUACGGUCU,-3.03 ± 0.2,-1.77 ± 0.2
AUCGAGCAAUAUUACGUCGA,-2.83 ± 0.19,-2.03 ± 0.19
AUCUAGCAAUAUUACGAACC,-1.08 ± 0.18,-0.855 ± 0.2
AUCUAGCAAUAUUACGAACG,-0.816 ± 0.12,-0.644 ± 0.22
AUCUAGCAAUAUUACGAAUC,-4.05 ± 0.36,-3.15 ± 0.27
AUCUAGCAAUAUUACGACAC,-1.02 ± 0.11,0.13 ± 0.13
AUCUAGCAAUAUUACGAGAU,-2.88 ± 0.26,-2.31 ± 0.34
AUCUAGCAAUAUUACGAGCU,-2.29 ± 0.17,-0.565 ± 0.17
AUCUAGCAAUAUUACGAGUG,-1.41 ± 0.078,-1.32 ± 0.12
AUCUAGCAAUAUUACGCAGA,-3.1 ± 0.49,-1.82 ± 0.23
AUCUAGCAAUAUUACGCCCU,-0.479 ± 0.19,0.46 ± 0.19
AUCUAGCAAUAUUACGCUCG,-0.792 ± 0.091,-0.0276 ± 0.12

Sequence,self-splicing fitness (ln) (30 °C),self-splicing fitness (ln) (37 °C)
AUCUAGCAAUAUUACGGACU,0.0775 ± 0.11,0.443 ± 0.12
AUCUAGCAAUAUUACGGAGG,-1.93 ± 0.14,-1.96 ± 0.23
AUCUAGCAAUAUUACGGCAA,-0.584 ± 0.14,-0.113 ± 0.14
AUCUAGCAAUAUUACGGCCA,-1.06 ± 0.12,-0.879 ± 0.13
AUCUAGCAAUAUUACGGGCG,-0.656 ± 0.1,-0.967 ± 0.11
AUCUAGCAAUAUUACGGGGG,-1.65 ± 0.11,-1.9 ± 0.15
AUCUAGCAAUAUUACGGGUC,-5.59 ± 0.41,-2.49 ± 0.23
AUCUAGCAAUAUUACGGUUA,-0.746 ± 0.15,-0.055 ± 0.12
AUCUAGCAAUAUUACGUACA,-1.73 ± 0.15,0.464 ± 0.17
AUCUAGCAAUAUUACGUCCA,-0.699 ± 0.14,0.279 ± 0.12
AUCUAGCAAUAUUACGUCCC,-0.434 ± 0.3,-0.129 ± 0.27
AUCUAGCAAUAUUACGUCUU,-0.776 ± 0.077,0.147 ± 0.1
AUCUAGCAAUAUUACGUGUG,-2.16 ± 0.1,-1.49 ± 0.12
AUCUAGCAAUAUUACGUUAU,-1.79 ± 0.11,-1.46 ± 0.11
AUCUAGCAAUAUUACGUUCU,-1.52 ± 0.09,-0.607 ± 0.11
AUCUAGCAAUAUUACGUUUA,-2.26 ± 0.13,-2.3 ± 0.13
AUGAAGCAAUAUUACGAGGC,-4.11 ± 0.27,-2.77 ± 0.23
AUGAAGCAAUAUUACGAGUA,-2.12 ± 0.079,-0.848 ± 0.088
AUGAAGCAAUAUUACGAGUG,-1.22 ± 0.056,-0.514 ± 0.081
AUGAAGCAAUAUUACGAUAC,-0.832 ± 0.11,-1.5 ± 0.17
AUGAAGCAAUAUUACGCCGA,-0.724 ± 0.11,-0.149 ± 0.15
AUGAAGCAAUAUUACGCGCU,-0.561 ± 0.082,0.35 ± 0.11
AUGAAGCAAUAUUACGCUCU,-0.29 ± 0.15,0.111 ± 0.18
AUGAAGCAAUAUUACGGAAG,-1.17 ± 0.1,-0.408 ± 0.16

Sequence,self-splicing fitness (ln) (30 °C),self-splicing fitness (ln) (37 °C)
AUGAAGCAAUAUUACGGAGA,-2.55 ± 0.33,-0.873 ± 0.23
AUGAAGCAAUAUUACGGAUU,-1.08 ± 0.078,-0.689 ± 0.1
AUGAAGCAAUAUUACGGGGG,-3.12 ± 0.24,-2.49 ± 0.28
AUGAAGCAAUAUUACGUAUA,-1.53 ± 0.11,-0.647 ± 0.11
AUGAAGCAAUAUUACGUGGG,-2.55 ± 0.11,-2.67 ± 0.14
AUGAAGCAAUAUUACGUUCG,0.356 ± 0.086,0.464 ± 0.12
AUGAAGCAAUAUUACGUUUU,-2.36 ± 0.12,-1.7 ± 0.15
AUGCAGCAAUAUUACGAAUA,-2.68 ± 0.2,-1.68 ± 0.16
AUGCAGCAAUAUUACGACGA,-0.531 ± 0.081,-0.65 ± 0.089
AUGCAGCAAUAUUACGACUU,0.39 ± 0.068,0.224 ± 0.075
AUGCAGCAAUAUUACGAGUA,-2.98 ± 0.19,-1.53 ± 0.13
AUGCAGCAAUAUUACGAUAC,-2.96 ± 0.38,
AUGCAGCAAUAUUACGAUGC,-2.06 ± 0.14,-0.432 ± 0.14
AUGCAGCAAUAUUACGCACC,-1.11 ± 0.18,-0.696 ± 0.21
AUGCAGCAAUAUUACGCAGA,-2.98 ± 0.16,-1.71 ± 0.12
AUGCAGCAAUAUUACGCAUG,-3.28 ± 0.35,-2.66 ± 0.31
AUGCAGCAAUAUUACGCAUU,-3.49 ± 0.11,-3.37 ± 0.19
AUGCAGCAAUAUUACGCCAA,-1.09 ± 0.12,-0.608 ± 0.14
AUGCAGCAAUAUUACGCCUG,-2.61 ± 0.35,
AUGCAGCAAUAUUACGCGGC,-3.79 ± 0.47,
AUGCAGCAAUAUUACGGCAA,0.0857 ± 0.12,0.0922 ± 0.12
AUGCAGCAAUAUUACGGCGG,-1.76 ± 0.068,-0.59 ± 0.081
AUGCAGCAAUAUUACGGGAU,-2.25 ± 0.088,-1.06 ± 0.097
AUGCAGCAAUAUUACGGGGG,-3.09 ± 0.18,-1.9 ± 0.16

Sequence,self-splicing fitness (ln) (30 °C),self-splicing fitness (ln) (37 °C)
AUGCAGCAAUAUUACGGGGU,-3.71 ± 0.17,-2.88 ± 0.18
AUGCAGCAAUAUUACGGUGA,-0.911 ± 0.093,-0.872 ± 0.1
AUGCAGCAAUAUUACGGUUA,-1.11 ± 0.079,-0.0917 ± 0.071
AUGCAGCAAUAUUACGUACC,-0.541 ± 0.084,0.409 ± 0.1
AUGCAGCAAUAUUACGUAUG,-3.15 ± 0.16,-1.09 ± 0.16
AUGCAGCAAUAUUACGUCGA,-1.61 ± 0.09,-0.738 ± 0.11
AUGCAGCAAUAUUACGUCGC,-3.69 ± 0.31,-2.57 ± 0.32
AUGCAGCAAUAUUACGUCUC,-1.93 ± 0.071,-1.05 ± 0.092
AUGCAGCAAUAUUACGUGAG,-1.36 ± 0.049,-1.06 ± 0.073
AUGCAGCAAUAUUACGUUCC,-1.55 ± 0.18,-1.17 ± 0.22
AUGCAGCAAUAUUACGUUGG,-2.96 ± 0.098,-2.33 ± 0.17
AUGCAGCAAUAUUACGUUUU,-2.8 ± 0.1,-1.65 ± 0.099
AUGGAGCAAUAUUACGAGGU,-2.74 ± 0.2,-3.38 ± 0.31
AUGGAGCAAUAUUACGCACG,-2.3 ± 0.3,-1.26 ± 0.34
AUGGAGCAAUAUUACGCCUG,-2.34 ± 0.27,-2.3 ± 0.28
AUGGAGCAAUAUUACGCGGU,-2.6 ± 0.25,-2.29 ± 0.25
AUGGAGCAAUAUUACGGAUU,-2.09 ± 0.13,0.177 ± 0.13
AUGGAGCAAUAUUACGGGGA,-3.29 ± 0.4,-2.28 ± 0.32
AUGGAGCAAUAUUACGGUGU,-2.12 ± 0.18,-0.816 ± 0.24
AUGGAGCAAUAUUACGUAGA,,-2.39 ± 0.42
AUGGAGCAAUAUUACGUCGG,-2.7 ± 0.26,-1.13 ± 0.24
AUGGAGCAAUAUUACGUUAG,-3.17 ± 0.32,-2.49 ± 0.29
AUGGAGCAAUAUUACGUUAU,-2.96 ± 0.13,-1.77 ± 0.12
AUGGAGCAAUAUUACGUUGC,-3.34 ± 0.4,-2.22 ± 0.42
